The numbers were not newly measured in PMC8162889, which cites them from elsewhere.

The data set deals with EphA2 ECD (Homo sapiens) (UniProt P29317). Nature of the data set: MST.
Chain of UniProt P29317 (P29317 24-537): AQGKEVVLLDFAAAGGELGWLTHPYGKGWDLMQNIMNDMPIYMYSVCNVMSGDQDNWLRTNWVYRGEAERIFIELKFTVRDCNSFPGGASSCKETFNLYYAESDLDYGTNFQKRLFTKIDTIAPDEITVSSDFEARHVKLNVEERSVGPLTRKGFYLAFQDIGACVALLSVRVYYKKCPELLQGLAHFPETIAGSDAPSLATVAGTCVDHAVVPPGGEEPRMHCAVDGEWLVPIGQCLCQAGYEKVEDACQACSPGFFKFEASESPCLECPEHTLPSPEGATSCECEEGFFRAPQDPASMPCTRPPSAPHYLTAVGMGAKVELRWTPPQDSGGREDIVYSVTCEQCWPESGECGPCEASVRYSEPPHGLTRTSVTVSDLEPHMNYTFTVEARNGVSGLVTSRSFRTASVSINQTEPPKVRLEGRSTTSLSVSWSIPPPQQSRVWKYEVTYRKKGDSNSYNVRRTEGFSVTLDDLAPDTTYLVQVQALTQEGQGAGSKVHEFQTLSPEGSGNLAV

For Progranulin (from UniProt P28799), the Kd (commonly the equilibrium constant for the complex coming apart) was 1.2 nM.
